# T1: DRB0118 (Deinococcus radiodurans, UniProt Q9RZK8)
# T1 construct: gene DR_B0118; residues 58-337, signal peptide removed; N-terminal MBP fusion kept, 6xHis cut by TEV; codon-optimized, E. coli BL21(DE3); mainly dimer in solution
# T1 sequence (Q9RZK8 58-337): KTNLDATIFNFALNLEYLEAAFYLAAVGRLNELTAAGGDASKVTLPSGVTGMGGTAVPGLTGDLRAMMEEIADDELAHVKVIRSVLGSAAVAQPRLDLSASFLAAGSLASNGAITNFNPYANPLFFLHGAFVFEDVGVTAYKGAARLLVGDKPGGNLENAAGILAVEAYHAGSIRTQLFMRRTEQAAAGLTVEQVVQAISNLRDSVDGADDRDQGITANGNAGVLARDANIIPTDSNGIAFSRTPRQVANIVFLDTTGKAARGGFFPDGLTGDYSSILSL
# B1: RvFeMP‐1 (Ramazzottius varieornatus Ferritin‐like metabolite phosphatase 1), residues 21–316 (enzyme)
# chain: GGNRGMSRNQDAYAEKMDMTLDALNFLLGVEHLASAFYVQAVNNFTADDFKAAGLAQRDYDQFVGVRNNEVDHRDTLISVIKSLGGKPNPPCKYTFPVTDVASVLKVSRTLENADKPAYLGALRDIKSVELRTSVQGALSGDSAHAAFFAYLTGKAPAPGPVDGPLTQRHIATLAQDFIVSCPYPAPKPFPKLTLSPQSGPVGTVVATTCAQDVDTNGVMCAIISGNQGTLMQRPGQAKDGSGAATCTIPPGVKGILFIAWVRGRDVLNVGVDDSSTVCGPNYFLLSALGDAVPGV
# notes: RvFeMP‐1 (RvY_06210 product) of Ramazzottius varieornatus strain YOKOZUNA‐1, residues 21–316, without the predicted 20-residue secretory signal peptide; After TEV cleavage one G of the recognition site probably stays at the N-terminus (surmised); also called RvY_06210 product; Tar‐fer; source: E. coli Shuffle T7, purified (HiTrap TALON, TEV protease, HisTrap flowthrough, Superdex 200 SEC); not …
# B2: MBP‐DRB0118 (DRB0118 residues 58–337 fused to maltose‐binding protein) (enzyme, Deinococcus radiodurans R1)
# chain: T1 sequence (Q9RZK8 58-337)
# notes: DRB0118 of Deinococcus radiodurans R1, residues 58–337, without the signal peptide region; codon-optimised synthetic DNA; The MBP carrier (amplified from pMAL‐c5X) stands N-terminal of DRB0118 and was kept; After TEV cleavage one G of the site probably stays before MBP (surmised); source: E. coli BL21(DE3), purified (HiTrap TALON, TEV protease, HisTrap flowthrough, Superdex 200 SEC); not shown: …
# Tests used:
# DRB0118 = target: T1, DRB0118; assay: malachite green phosphate release; assay type: biochemical; details: 1 mM substrate, 20 mM Tris-HCl pH 8.0, 37 °C, 1 h; MBP fusion
# [1] = target: the molecule itself; assay: crystal structure; sitting-drop vapor diffusion at 20 °C, RvFeMP‐1 at 10 mg/mL; conditions A (MES pH 6.0, PEG 20000), B (MgCl2, Tris–HCl pH 8.2, PEG 4000) and C (sodium thiocyanate, sodium acetate pH 4.0, PEG4000); dimer of two protomers
# [2] = target: the molecule itself; assay: native gel or EMSA; high‐resolution clear native PAGE of the purified sample (EzApply Native, EzStandard Native, EzRun ClearNative, ATTO)
molecule,measurement,setting,value
"O=[N+]([O-])c1ccc(OP(=O)(O)O)cc1 [pNPP, p-nitrophenyl phosphate]",activity (nmol/min/mg),DRB0118,can also function as a phosphatase and the activity toward pNPP was higher
B1,binding result,[1],binds
B2,stoichiometry N,[2],2

# From PMC11616004, “Metabolite phosphatase from anhydrobiotic tardigrades” (The Febs Journal, 2024)
